# Measurements taken from ChEMBL document CHEMBL1123043, “Effects of charge, volume, and surface on binding of inhibitor and substrate moieties to acetylcholinesterase” (J Med Chem, 1985).
# B1: Choline O-acetyltransferase (Rattus norvegicus), P32738 (protein)
# chain: MPILEKAPQKMPVKASSWEELDLPKLPVPPLQQTLATYLQCMQHLVPEEQFRKSQAIVKRFGAPGGLGETLQEKLLERQEKTANWVSEYWLNDMYLNNRLALPVNSSPAVIFARQHFQDTNDQLRFAACLISGVLSYKTLLDSHSLPTDWAKGQLSGQPLCMKQYYRLFSSYRLPGHTQDTLVAQKSSIMPEPEHVIVACCNQFFVLDVVINFRRLSEGDLFTQLRKIVKMASNEDERLPPIGLLTSDGRSEWAKARTVLLKDSTNRDSLDMIERCICLVCLDGPGTGELSDTHRALQLLHGGGCSLNGANRWYDKSLQFVVGRDGTCGVVCEHSPFDGIVLVQCTEHLLKHMMTSNKKLVRADSVSELPAPRRLRLKCSPETQGHLASSAEKLQRIVKNLDFIVYKFDNYGKTFIKKQKYSPDGFIQVALQLAYYRLYQRLVPTYESASIRRFQEGRVDNIRSATPEALAFVQAMTDHKAAMPASEKLQLLQTAMQAHKQYTVMAITGMAIDNHLLALRELARDLCKEPPEMFMDETYLMSNRFVLSTSQVPTTMEMFCCYGPVVPNGNGACYNPQPEAITFCISSFHSCKETSSVEFAEAVGASLVDMRDLCSSRQPADSKPPAPKEKARGPSQAKQS
# What was measured:
# [1] = substrate: CC(=O)OCCS(C)(=O)=O
# Description: (§1) Compound was evaluated for reversible inhibition of hydrolysis acetylcholine by acetylcholinesterase and represented as Km(app) apparent binding constant
# [2] = substrate: CSCCO
# Description: as §1
# [3] = substrate: CC(C)(C)CCO
# Description: as §1
# [4] = substrate: C[S+](C)CCO
# Description: as §1
# [5] = substrate: CCCCO
# Description: as §1
# [6] = substrate: CC(=O)CCC[N+](C)(C)[O-]
# Description: as §1
# [7] = substrate: C[N+](C)(C)CCO
# Description: as §1
# [8] = substrate: C[Si](C)(C)CCO
# Description: as §1
# [9] = substrate: CS(=O)(=O)CCO
# Description: as §1
# [10] = substrate: CN(C)C
# Description: as §1
# 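Also: apparent binding constant Km(app) for reversible inhibition of acetylcholine hydrolysis catalysed by acetylcholinesterase.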
protein,measurement,setting,value
B1,Km,[1],6.2 mM
same,Km,[2],15 mM
same,Km,[3],5.3 mM
same,Km,[4],0.33 mM
same,Km,[5],13 mM
same,Km,[6],18 mM
same,Km,[7],0.33 mM
same,Km,[8],3.5 mM
same,Km,[9],6.2 mM
same,Km,[10],18 mM
